# Measured values published in the supplement of paper PMC7877785.
# ± gives the uncertainty stated by the source.
# Assay: self-splicing fitness, log relative to wild type (ln ratio); higher = more splicing; Tetrahymena group I intron in knt gene, E. coli kanamycin selection, DiMSum; sequences stand for … in CUCUCU…GGAGGGAAAAGUUAUCAGGCAUGCACCUGGUAGCUAGUCUUUAAACCAAUAGAUUGCAUCGGUUUAAAAGGCAAGACCGUCAAAUUGCGGGAAAGGGGUCAACAGCCGUUCAGUACCAAGUCUCAGGGGAAACUUUGAGAUGGCCUUGCAAAGGGUAUGGUAAUAAGCUGACGGACAUGGUCCUAACCACGCAGCCAAGUCCUAAGUCAACAGAUCUUCUGUUGAUAUGGAUGCAGUUCACAGACUAAAUGUCGGUCGGGGAAGAUGUAUUCUUCUCAUAAGAUAUAGUCGGACCUCUCCUUAAUGGGAGCUAGCGGAUGAAGUGAUGCAACACUGGAGCCGCUGGGAACUAAUUUGUAUGCGAAAGUAUAUUGAUUAGUUUUGGAGUACUCGUGGUCG
# How it was run: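 DiMSum derived fitness as the error-weighted combination of fold changes across replicates, kanamycin versus no kanamycin, normalised to wild type. E. coli BL21(DE3) held the library, which randomised all eight P1ex-region intron nucleotides within the knt kanamycin-resistance gene on pET-22b(+). Six replicate transformations grew overnight at 37°C or 30°C on LB agar with or without 25 μg/mL kanamycin, also containing 100 μg/mL carbenicillin, 50 μM IPTG and 0.2% rhamnose, and pooled colonies were amplicon-sequenced on an Illumina HiSeq 2500.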
Sequence,self-splicing fitness (ln) (30 °C),self-splicing fitness (ln) (37 °C)
CAACAGCAAUAUUACGCGAA,-2.16 ± 0.16,-1.61 ± 0.14
CAACAGCAAUAUUACGCGAC,-3.56 ± 0.12,-1.5 ± 0.12
CAACAGCAAUAUUACGCGCA,-0.857 ± 0.085,0.0215 ± 0.087
CAACAGCAAUAUUACGCGCG,-0.385 ± 0.059,-0.492 ± 0.082
CAACAGCAAUAUUACGCGGA,-1.6 ± 0.1,-1.83 ± 0.091
CAACAGCAAUAUUACGCUAA,-2.36 ± 0.098,-2.11 ± 0.12
CAACAGCAAUAUUACGGCAC,-2.31 ± 0.13,-1.61 ± 0.13
CAACAGCAAUAUUACGGCGC,-1.94 ± 0.076,-1.24 ± 0.096
CAACAGCAAUAUUACGGCGU,-2.15 ± 0.091,-0.0717 ± 0.092
CAACAGCAAUAUUACGGGAG,-1.23 ± 0.051,-1.03 ± 0.063
CAACAGCAAUAUUACGGGCC,-5.11 ± 0.46,-1.48 ± 0.14
CAACAGCAAUAUUACGGGUU,-3.14 ± 0.15,-1.78 ± 0.12
CAACAGCAAUAUUACGGUAC,-4.95 ± 0.28,-3.34 ± 0.22
CAACAGCAAUAUUACGGUUA,-0.258 ± 0.048,0.275 ± 0.056
CAACAGCAAUAUUACGUAGG,-0.482 ± 0.055,0.249 ± 0.069
CAACAGCAAUAUUACGUGCU,-3.48 ± 0.13,-2.27 ± 0.12
CAAGAGCAAUAUUACGACCC,-2.19 ± 0.45,–
CAAGAGCAAUAUUACGAGGG,-3.17 ± 0.16,-2.75 ± 0.2
CAAGAGCAAUAUUACGAGUA,–,-1.56 ± 0.27
CAAGAGCAAUAUUACGAUCC,-2.49 ± 0.42,-2.15 ± 0.5
CAAGAGCAAUAUUACGAUGC,-2.54 ± 0.32,-2.31 ± 0.39
CAAGAGCAAUAUUACGAUUA,-1.92 ± 0.19,-0.907 ± 0.21
CAAGAGCAAUAUUACGCACC,-3.75 ± 0.35,–
CAAGAGCAAUAUUACGCAGG,-2.62 ± 0.13,-2 ± 0.17
CAAGAGCAAUAUUACGCAGU,-4 ± 0.46,–

Sequence,self-splicing fitness (ln) (30 °C),self-splicing fitness (ln) (37 °C)
CAAGAGCAAUAUUACGCCGA,-2.4 ± 0.23,-1.04 ± 0.32
CAAGAGCAAUAUUACGCUCU,-3.49 ± 0.32,-1.86 ± 0.27
CAAGAGCAAUAUUACGCUGC,-3.4 ± 0.41,-2.01 ± 0.24
CAAGAGCAAUAUUACGGAUG,-2.89 ± 0.1,-2.04 ± 0.12
CAAGAGCAAUAUUACGUCAA,-3.43 ± 0.43,-2.73 ± 0.25
CAAGAGCAAUAUUACGUCGG,-1.4 ± 0.087,-1.37 ± 0.11
CAAGAGCAAUAUUACGUGAG,-1.44 ± 0.087,-0.683 ± 0.11
CAAGAGCAAUAUUACGUGCU,-4.39 ± 0.31,-2.36 ± 0.17
CAAUAGCAAUAUUACGACAU,-3.694 ± 0.024,-2.38 ± 0.037
CAAUAGCAAUAUUACGAUUA,-1.2 ± 0.12,-0.352 ± 0.11
CAAUAGCAAUAUUACGCCAA,-2.96 ± 0.22,-2.76 ± 0.2
CAAUAGCAAUAUUACGCCUU,-2.1 ± 0.23,-0.997 ± 0.24
CAAUAGCAAUAUUACGCUAC,-3.14 ± 0.22,-2.08 ± 0.26
CAAUAGCAAUAUUACGGCAC,-3.57 ± 0.2,-3.06 ± 0.28
CAAUAGCAAUAUUACGGCAG,-0.535 ± 0.078,0.191 ± 0.11
CAAUAGCAAUAUUACGGCCG,0.102 ± 0.12,0.341 ± 0.16
CAAUAGCAAUAUUACGGCCU,-2.69 ± 0.21,-3.6 ± 0.39
CAAUAGCAAUAUUACGGCGC,-3.81 ± 0.35,-1.37 ± 0.19
CAAUAGCAAUAUUACGGGCC,–,-1.94 ± 0.29
CAAUAGCAAUAUUACGGGGG,-2.64 ± 0.19,-2.01 ± 0.15
CAAUAGCAAUAUUACGGGGU,-4.27 ± 0.39,-2.48 ± 0.23
CAAUAGCAAUAUUACGGUAU,-3.15 ± 0.15,-2.42 ± 0.21
CAAUAGCAAUAUUACGUACC,-4.73 ± 0.32,-3.09 ± 0.32
CAAUAGCAAUAUUACGUACU,-3.33 ± 0.13,-1.8 ± 0.13
CAAUAGCAAUAUUACGUGCC,-2.98 ± 0.26,-3.02 ± 0.32

Sequence,self-splicing fitness (ln) (30 °C),self-splicing fitness (ln) (37 °C)
CAAUAGCAAUAUUACGUUUC,-4.35 ± 0.2,-3.13 ± 0.19
CACAAGCAAUAUUACGAAGU,-3.68 ± 0.16,-1.43 ± 0.12
CACAAGCAAUAUUACGACUU,-3.49 ± 0.18,-2.47 ± 0.21
CACAAGCAAUAUUACGAGCA,-2.96 ± 0.2,-2.28 ± 0.17
CACAAGCAAUAUUACGAGGU,-3.59 ± 0.17,-2.2 ± 0.18
CACAAGCAAUAUUACGAUAC,-3.58 ± 0.21,-2.5 ± 0.29
CACAAGCAAUAUUACGCGAA,-3.43 ± 0.17,-2.44 ± 0.14
CACAAGCAAUAUUACGCGAG,-1.89 ± 0.092,-0.699 ± 0.091
CACAAGCAAUAUUACGCGCA,-0.607 ± 0.095,-1.28 ± 0.1
CACAAGCAAUAUUACGCGGA,-3.17 ± 0.13,-1.08 ± 0.084
CACAAGCAAUAUUACGCGUC,-2.54 ± 0.13,-2.15 ± 0.18
CACAAGCAAUAUUACGCUAC,-3.18 ± 0.19,-2.26 ± 0.18
CACAAGCAAUAUUACGGAGU,-3.2 ± 0.13,-2.64 ± 0.15
CACAAGCAAUAUUACGGCGU,-1.66 ± 0.088,-1.57 ± 0.099
CACAAGCAAUAUUACGGGAU,-3.51 ± 0.14,-1.41 ± 0.097
CACAAGCAAUAUUACGGGCC,-3.78 ± 0.33,-2.01 ± 0.29
CACAAGCAAUAUUACGGGUC,-3.43 ± 0.1,-2.2 ± 0.12
CACAAGCAAUAUUACGGUUC,-4.1 ± 0.22,-2.66 ± 0.19
CACAAGCAAUAUUACGUCAA,-3.14 ± 0.17,-2.6 ± 0.2
CACAAGCAAUAUUACGUCGC,-3.09 ± 0.11,-2.41 ± 0.17
CACAAGCAAUAUUACGUCGU,-3.56 ± 0.13,-1.96 ± 0.11
CACAAGCAAUAUUACGUCUC,-3.1 ± 0.25,-2.5 ± 0.22
CACAAGCAAUAUUACGUGAU,-4.03 ± 0.15,-2.5 ± 0.15
CACAAGCAAUAUUACGUUAG,-1.37 ± 0.052,-0.63 ± 0.062
CACAAGCAAUAUUACGUUGA,-3.84 ± 0.2,-1.64 ± 0.1

Sequence,self-splicing fitness (ln) (30 °C),self-splicing fitness (ln) (37 °C)
CACCAGCAAUAUUACGACAU,-3.726 ± 0.018,-2.66 ± 0.035
CACCAGCAAUAUUACGAGAA,-3.55 ± 0.43,-2.33 ± 0.28
CACCAGCAAUAUUACGAGGC,-2.98 ± 0.17,-2.46 ± 0.19
CACCAGCAAUAUUACGAUGA,-1.9 ± 0.091,-2 ± 0.099
CACCAGCAAUAUUACGAUUA,-2.82 ± 0.14,-1.26 ± 0.11
CACCAGCAAUAUUACGCAGC,-3.44 ± 0.16,-1.77 ± 0.12
CACCAGCAAUAUUACGCCGU,-2.65 ± 0.13,-2.55 ± 0.18
CACCAGCAAUAUUACGCUAU,-4.03 ± 0.16,-2.21 ± 0.13
CACCAGCAAUAUUACGCUUC,-4.12 ± 0.34,-1.45 ± 0.13
CACCAGCAAUAUUACGGAAG,-0.975 ± 0.049,-0.0423 ± 0.072
CACCAGCAAUAUUACGGGAU,-3.34 ± 0.076,-1.9 ± 0.076
CACCAGCAAUAUUACGGGCC,-3.9 ± 0.19,-1.73 ± 0.14
CACCAGCAAUAUUACGGGGU,-4.29 ± 0.2,-3.49 ± 0.29
CACCAGCAAUAUUACGGUAC,-3.11 ± 0.11,-2.13 ± 0.1
CACCAGCAAUAUUACGGUGG,-2.71 ± 0.077,-1.59 ± 0.084
CACCAGCAAUAUUACGUGGU,-3.65 ± 0.1,-3.16 ± 0.14
CACCAGCAAUAUUACGUGUU,-4.11 ± 0.14,-2.67 ± 0.1
CACCAGCAAUAUUACGUUCC,-4.91 ± 0.41,-2.45 ± 0.26
CACGAGCAAUAUUACGAAUC,-3.87 ± 0.35,-2.93 ± 0.25
CACGAGCAAUAUUACGACAA,–,-2.44 ± 0.28
CACGAGCAAUAUUACGACCG,-0.0895 ± 0.089,0.125 ± 0.12
CACGAGCAAUAUUACGCACG,-2.13 ± 0.21,-1.15 ± 0.21
